By Kd is commonly meant a measure of binding affinity in units of concentration. A low value points to a tighter complex.

In US20100249029A1 (Novo Nordisk, published 2010) one finds Kd data, which are given here for 13 molecules.

Experiment [1] deals with T1, Biotinylated prolactin receptor BirATag-Ser-PRLR (1-210) (human, UniProt P16471 25-234, biotinylated (BirA tag, biotin added during expression in E. coli)).
T1 construct: range 1-210; also called BirA-Ser-PRLR (1-210); not shown: BirA tag (biotin acceptor tag)
T1 sequence: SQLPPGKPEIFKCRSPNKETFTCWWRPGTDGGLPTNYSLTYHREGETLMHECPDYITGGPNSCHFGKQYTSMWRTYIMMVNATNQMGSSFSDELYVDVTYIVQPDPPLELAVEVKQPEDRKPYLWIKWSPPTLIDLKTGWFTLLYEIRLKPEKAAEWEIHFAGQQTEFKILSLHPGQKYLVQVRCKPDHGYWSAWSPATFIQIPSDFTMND
In words: SPR (Biacore); biotinylated BirATag-Ser-PRLR (1-210) amine-coupled to CM5 chip, variant injected at 3.13-50 nM; STDEV 0.035. The method, then:
(§1) Biotinylated prolactin receptor BirATag-Ser-PRLR (1-210) was diluted to 20 μg/ml in 10 mM sodium acetate pH 4.0 (Biacore BR-1003-49) and immobilized on a CM5 chip (Biacore BR-1006-68) with the immobilization reagents 1-ethyl-3-(3-dimethylaminopropyl) carbodiimide hydrochloride (EDC), N-hydroxysuccinimide (NHS) and 1.0 M ethanolamine-HCl pH 8.5 (Biacore BR1000-50). The immobilization level was 1500 RU. The PRL variants prepared as described in Example 5 were diluted to a series of concentrations as following: 3.13/6.25/12.5/25/50 nM and run through the PRLR immobilized chip using HBS-EP (10 mM HEPES pH 7.4; 150 mM NaCl; 3 mM EDTA; 0.005% v/v Tween-20) as the running buffer under the following conditions: […]

In experiment [2] the target is T1, Biotinylated prolactin receptor …. Description: SPR (Biacore); biotinylated BirATag-Ser-PRLR (1-210) amine-coupled to CM5 chip, variant injected at 3.13-50 nM; STDEV 0.000. On the procedure:
as §1

For experiment [3] the target is unchanged. Description: SPR (Biacore); biotinylated BirATag-Ser-PRLR (1-210) amine-coupled to CM5 chip, variant injected at 3.13-50 nM; STDEV 0.021. The method, then:
as §1
In general terms: In SPR one partner is held on a chip, and binding of the other changes the refractive index at the surface.

Experiment [4] has the same target. In words: SPR (Biacore); biotinylated BirATag-Ser-PRLR (1-210) amine-coupled to CM5 chip, variant injected at 3.13-50 nM; STDEV 0.042. The method, then: as §1
For experiment [5] the target is unchanged. In words: SPR (Biacore); biotinylated BirATag-Ser-PRLR (1-210) amine-coupled to CM5 chip, variant injected at 3.13-50 nM; STDEV 0.092. On the procedure: as §1
Experiment [6] has the same target. Description: SPR (Biacore); biotinylated BirATag-Ser-PRLR (1-210) amine-coupled to CM5 chip, variant injected at 3.13-50 nM; STDEV 0.29. The method, then:
as §1

Experiment [7] has the same target. Description: SPR (Biacore); biotinylated BirATag-Ser-PRLR (1-210) amine-coupled to CM5 chip, variant injected at 3.13-50 nM; STDEV 0.049. The method, then:
as §1

The target is the same in experiment [8]. Description: SPR (Biacore); biotinylated BirATag-Ser-PRLR (1-210) amine-coupled to CM5 chip, variant injected at 3.13-50 nM; STDEV 0.1273. On the procedure: as §1
The target is the same in experiment [9]. Description: SPR (Biacore); biotinylated BirATag-Ser-PRLR (1-210) amine-coupled to CM5 chip, variant injected at 3.13-50 nM; STDEV 0.44. On the procedure:
as §1

For experiment [10] the target is unchanged. In words: SPR (Biacore); biotinylated BirATag-Ser-PRLR (1-210) amine-coupled to CM5 chip, variant injected at 3.13-50 nM; STDEV 0.057. On the procedure: as §1
For experiment [11] the target is unchanged. In words: SPR (Biacore); biotinylated BirATag-Ser-PRLR (1-210) amine-coupled to CM5 chip, variant injected at 3.13-50 nM; STDEV 0.064. The method, then:
as §1

Experiment [12] has the same target. Description: SPR (Biacore); biotinylated BirATag-Ser-PRLR (1-210) amine-coupled to CM5 chip, variant injected at 3.13-50 nM; STDEV 0.18. The method, then: as §1
The target is the same in experiment [13]. In words: SPR (Biacore); biotinylated BirATag-Ser-PRLR (1-210) amine-coupled to CM5 chip, variant injected at 3.13-50 nM; STDEV 0.085. On the procedure:
as §1

B1: PRL S61A, D68N, G71A, Q73A, G129R, K190R (ligand)
chain: LPICPGGAARCQVTLRDLFDRAVVLSHYIHNLSSEMFSEFDKRYTHGRGFITKAINSCHTASLATPENKEAAAQMNQKDFLSLIVSILRSWNEPLYHLVTEVRGMQEAPEAILSKAVEIEEQTKRLLERMELIVSQVHPETKENEIYPVWSGLPSLQMADEESRLSAYYNLLHCLRRDSHKIDNYLKLLRCRIIHNNNC
notes: Printed without the prefix Ser-. 'G71A' is copied as printed
In turn, B1 gave a Kd in [1] of 1.7 nM. That is a single-digit nanomolar value.

B2: PRL S61A, D68N, G129R, K190R (ligand)
chain: LPICPGGAARCQVTLRDLFDRAVVLSHYIHNLSSEMFSEFDKRYTHGRGFITKAINSCHTASLATPENKEQAQQMNQKDFLSLIVSILRSWNEPLYHLVTEVRGMQEAPEAILSKAVEIEEQTKRLLERMELIVSQVHPETKENEIYPVWSGLPSLQMADEESRLSAYYNLLHCLRRDSHKIDNYLKLLRCRIIHNNNC
notes: Printed without the prefix Ser-; No. 23 carries the same substitutions with Ser-
B2: the Kd in experiment [2] is 1.4 nM.

B3: Ser-PRL D68N, E70K, Q73L, G129R, K190R (ligand)
chain: SLPICPGGAARCQVTLRDLFDRAVVLSHYIHNLSSEMFSEFDKRYTHGRGFITKAINSCHTSSLATPENKKQALQMNQKDFLSLIVSILRSWNEPLYHLVTEVRGMQEAPEAILSKAVEIEEQTKRLLERMELIVSQVHPETKENEIYPVWSGLPSLQMADEESRLSAYYNLLHCLRRDSHKIDNYLKLLRCRIIHNNNC
Take B3: the dissociation constant (Kd) in experiment [3] is 1.2 nM.

B4: Ser-PRL G129R, K190R, I194V, H195Y, N196R, N197D (ligand)
chain: SLPICPGGAARCQVTLRDLFDRAVVLSHYIHNLSSEMFSEFDKRYTHGRGFITKAINSCHTSSLATPEDKEQAQQMNQKDFLSLIVSILRSWNEPLYHLVTEVRGMQEAPEAILSKAVEIEEQTKRLLERMELIVSQVHPETKENEIYPVWSGLPSLQMADEESRLSAYYNLLHCLRRDSHKIDNYLKLLRCRIVYRDNC
In the case of B4, the affinity in [4], expressed as Kd, was 3.2 nM.

B5: Ser-PRL K42R, Q73L, G129R, K190R (ligand)
chain: SLPICPGGAARCQVTLRDLFDRAVVLSHYIHNLSSEMFSEFDRRYTHGRGFITKAINSCHTSSLATPEDKEQALQMNQKDFLSLIVSILRSWNEPLYHLVTEVRGMQEAPEAILSKAVEIEEQTKRLLERMELIVSQVHPETKENEIYPVWSGLPSLQMADEESRLSAYYNLLHCLRRDSHKIDNYLKLLRCRIIHNNNC
In turn, B5 gave a dissociation constant Kd in [5] of 2.6 nM. This counts as single-digit nanomolar.

B6: Ser-PRL S38I, D68N, G129R, S179T, I182V (ligand)
chain: SLPICPGGAARCQVTLRDLFDRAVVLSHYIHNLSSEMFIEFDKRYTHGRGFITKAINSCHTSSLATPENKEQAQQMNQKDFLSLIVSILRSWNEPLYHLVTEVRGMQEAPEAILSKAVEIEEQTKRLLERMELIVSQVHPETKENEIYPVWSGLPSLQMADEESRLSAYYNLLHCLRRDTHKVDNYLKLLKCRIIHNNNC
In experiment [6], B6 had an equilibrium dissociation constant (Kd) of 3.1 nM.

B7: Ser-PRL S61A, Q73L, G129R, K190R (ligand)
chain: SLPICPGGAARCQVTLRDLFDRAVVLSHYIHNLSSEMFSEFDKRYTHGRGFITKAINSCHTASLATPEDKEQALQMNQKDFLSLIVSILRSWNEPLYHLVTEVRGMQEAPEAILSKAVEIEEQTKRLLERMELIVSQVHPETKENEIYPVWSGLPSLQMADEESRLSAYYNLLHCLRRDSHKIDNYLKLLRCRIIHNNNC
B7 returned a dissociation constant Kd in [7] of 1.3 nM.

B8: Ser-PRL S61A, D68N, G129R, K190R (ligand)
chain: SLPICPGGAARCQVTLRDLFDRAVVLSHYIHNLSSEMFSEFDKRYTHGRGFITKAINSCHTASLATPENKEQAQQMNQKDFLSLIVSILRSWNEPLYHLVTEVRGMQEAPEAILSKAVEIEEQTKRLLERMELIVSQVHPETKENEIYPVWSGLPSLQMADEESRLSAYYNLLHCLRRDSHKIDNYLKLLRCRIIHNNNC
The molecule B8 gave a dissociation constant Kd in experiment [8] of 2.3 nM.

B9: Ser-PRL S33A, Q73L, G129R, K190R, I194V, H195Y, N196R, N197D (ligand)
chain: SLPICPGGAARCQVTLRDLFDRAVVLSHYIHNLASEMFSEFDKRYTHGRGFITKAINSCHTSSLATPEDKEQALQMNQKDFLSLIVSILRSWNEPLYHLVTEVRGMQEAPEAILSKAVEIEEQTKRLLERMELIVSQVHPETKENEIYPVWSGLPSLQMADEESRLSAYYNLLHCLRRDSHKIDNYLKLLRCRIVYRDNC
With B9, in experiment [9], the Kd stood at 3.8 nM. This counts as single-digit nanomolar.

B10: Ser-PRL D68N, Q73L, G129R, K190R (ligand)
chain: SLPICPGGAARCQVTLRDLFDRAVVLSHYIHNLSSEMFSEFDKRYTHGRGFITKAINSCHTSSLATPENKEQALQMNQKDFLSLIVSILRSWNEPLYHLVTEVRGMQEAPEAILSKAVEIEEQTKRLLERMELIVSQVHPETKENEIYPVWSGLPSLQMADEESRLSAYYNLLHCLRRDSHKIDNYLKLLRCRIIHNNNC
In experiment [10], B10 displayed a Kd of 1.2 nM.

B11: Ser-PRL S33A Q73L G129R K190R (ligand)
chain: SLPICPGGAARCQVTLRDLFDRAVVLSHYIHNLASEMFSEFDKRYTHGRGFITKAINSCHTSSLATPEDKEQALQMNQKDFLSLIVSILRSWNEPLYHLVTEVRGMQEAPEAILSKAVEIEEQTKRLLERMELIVSQVHPETKENEIYPVWSGLPSLQMADEESRLSAYYNLLHCLRRDSHKIDNYLKLLRCRIIHNNNC
Take B11: the Kd in [11] was found to be 5 nM.

B12: Ser-PRL S38I, D68N, G129R, I182V (ligand)
chain: SLPICPGGAARCQVTLRDLFDRAVVLSHYIHNLSSEMFIEFDKRYTHGRGFITKAINSCHTSSLATPENKEQAQQMNQKDFLSLIVSILRSWNEPLYHLVTEVRGMQEAPEAILSKAVEIEEQTKRLLERMELIVSQVHPETKENEIYPVWSGLPSLQMADEESRLSAYYNLLHCLRRDSHKVDNYLKLLKCRIIHNNNC
In experiment [12], B12 returned an equilibrium dissociation constant (Kd) of 2.8 nM.

B13: Ser-PRL S61A, D68N, Q73L, G129R, K190R (ligand)
chain: SLPICPGGAARCQVTLRDLFDRAVVLSHYIHNLSSEMFSEFDKRYTHGRGFITKAINSCHTASLATPENKEQALQMNQKDFLSLIVSILRSWNEPLYHLVTEVRGMQEAPEAILSKAVEIEEQTKRLLERMELIVSQVHPETKENEIYPVWSGLPSLQMADEESRLSAYYNLLHCLRRDSHKIDNYLKLLRCRIIHNNNC
As to B13, the Kd in [13] came to 1.1 nM.
